Experimental data published in patent US20240050475A1.

Molecular target: human PRDX4 present on the cell surface of cancer cells (human) (UniProt Q13162)
Test: flow cytometry on ES-2 cells, control staining

Sequence of UniProt Q13162 (Q13162 38-271 limits assumed): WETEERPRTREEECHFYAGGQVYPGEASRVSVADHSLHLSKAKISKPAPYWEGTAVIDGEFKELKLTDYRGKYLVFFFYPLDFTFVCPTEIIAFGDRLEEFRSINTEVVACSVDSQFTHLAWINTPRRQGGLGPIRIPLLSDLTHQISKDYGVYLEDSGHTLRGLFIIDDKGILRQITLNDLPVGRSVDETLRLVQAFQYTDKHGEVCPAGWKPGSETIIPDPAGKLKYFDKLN

- mean (flow cytometry): 159
Substance: isotype antibody
